Measured values taken from article PMC7337405, “A secreted LysM effector protects fungal hyphae through chitin-dependent homodimer polymerization” (PLoS Pathogens, 2020).

Key:
[1] = molecular target: T1, Mg1LysM (Zymoseptoria tritici, UniProt F9XHX3); experiment: X-ray crystal structure of the complex ([…] Å); assay type: binding; conditions: P. pastoris-produced protein; ligand co-purified from host cell wall; site between two protomers of neighbouring homodimers
T1 construct: mature single-LysM effector, signal peptide absent; ITC: E. coli Origami pET-SUMO, His-SUMO cut off by ULP1; crystal: P. pastoris GS115, His-FLAG tag; ligand-independent homodimer; chitin site formed by two protomers of neighbouring homodimers

[2] = molecular target: (GlcNAc)6; experiment: ITC

| Compound | X-ray crystal structure of the complex (2.41 Å) [1] | other: stoichiometry N [2] |
| --- | --- | --- |
| CC(=O)N[C@H]1[C@H](O[C@H]2[C@H](O)[C@@H](NC(C)=O)C(O)O[C@@H]2CO)O[C@H](CO)[C@@H](O[C@@H]2O[C@H](CO)[C@@H](O)[C@H](O)[C@H]2NC(C)=O)[C@@H]1O (stereo partly shown) [chitin trimer] | well-defined electron density for a single chitin trimer bound to one monomer of the a.u. |  |
| Mg1LysM (Zymoseptoria tritici LysM effector), wild type, produced in E. coli (from UniProt A0A1X7S147) D54A |  | 0.902 |
| Mg1LysM (Zymoseptoria tritici LysM effector), wild type, produced in E. coli (from UniProt A0A1X7S147) K31A |  | 0.97 |
| Mg1LysM (Zymoseptoria tritici LysM effector), wild type, produced in E. coli (from UniProt A0A1X7S147) T28R |  | 0.956 |
